What is called kcat is the number of substrate molecules converted per active site and unit of time at saturation. For orientation: kcat/Km means the second-order rate constant that governs catalysis at low substrate concentration.

The subject of data set [1] is Oc1ccc(Cl)cc1O. Description: spectrophotometric oxidation assay, nonlinear regression. The class given is biochemical, Thermothelomyces thermophilus. The following applies: 0.1 M sodium phosphate pH 7, 40°C, 440 nm, 0 to 5 mM substrate. The text has this: (§1) spectrophotometric oxidation assay, nonlinear regression on TtPPO
Substrate in data set [2]: COc1ccccc1O
Put plainly: purified protein. The following applies: 0.1 M sodium phosphate pH 7, 40°C, 0 to 15 mM substrate.

Substrate in data set [3]: Oc1ccc(O)cc1
Put plainly: spectrophotometric oxidation assay, nonlinear regression. The class given is biochemical, Thermothelomyces thermophilus. Conditions: 0.1 M sodium phosphate pH 7, 40°C, 480 nm, 0 to 70 mM substrate.
Source text: as §1

Substrate in data set [4]: Oc1ccccc1O
Described as above. In kind it is biochemical, Thermothelomyces thermophilus. The following applies: 0.1 M sodium phosphate pH 7, 40°C, 0 to 60 mM substrate.
Source text: as §1

Substrate in data set [5]: N[C@@H](Cc1ccc(O)c(O)c1)C(=O)O
The data set is described as above. The class given is biochemical, Thermothelomyces thermophilus. The following applies: 0.1 M sodium phosphate pH 7, 40°C, 475 nm, 0 to 7 mM substrate.
Source text: as §1

Substrate in data set [6]: COc1cc(C=O)ccc1O
The description is as above. The following applies: 0.1 M sodium phosphate pH 7, 40°C, 0 to 5 mM substrate. The class given is biochemical, Thermothelomyces thermophilus.
Source text: as §1

Substrate in data set [7]: Oc1cc(O)c2c(c1)O[C@H](c1ccc(O)c(O)c1)[C@@H](O)C2
The description is as above. The class given is biochemical, Thermothelomyces thermophilus. Conditions: 0.1 M sodium phosphate pH 7, 40°C, 440 nm, 0 to 10 mM substrate (Km lies above tested range).
Source text: as §1

On to “TtPPO (Thermothelomyces thermophilus ATCC 42464)”, for which, in data set [1], the Km is on record as 1.6 (0.1) mM, the kcat worked out at 5.69 s⁻¹ and the kcat/Km is 3490 M⁻¹ s⁻¹.

B1: TtPPO (Thermothelomyces thermophilus ATCC 42464) (protein)
chain: RCSSDAPPPAPVGDDLTEPKELTDLFEKAKKAVIDRLHEDEKALRARGEAPRCTADKLIFRREYGSLSKDERLAYVNAVKCLQSKPPRTPASVAPGARSRFDDFVVVHIQQTLDIHYSGIFQAWHRWFVYQYEKALRDECGYTGYQPYWDWPKYASAPQDSPLFNGDPYSLGGNGEYVPHDGPVIVPPEGVSGGNISLPAGVGGGFVRTGPFANMTVNLGPVGGLADTAPGPQGGLGYNPRGLKRDLGGAMNTRYANYTTVLRLLTQPDVDAFRTVSEGVPYTVEIGPHGGIHYTIGGDPGGDLFTSPGDPAFWVHHAQMDRVWATWQALGLLPPADGGDPDPARRYTDLGKGDYAHRTWQNSPPSPFAELSDVIDMGYAAPSTTIGAVMSTTEGELCYFYL
notes: secreted by Pichia pastoris X-33, glycosylated; IMAC
As for B1, the Km is recorded as 4.2 (0.6) mM in data set [2]; 54.4 (5.5) mM in data set [3]; 27.0 (2.8) mM in data set [4]; 2.2 (0.6) mM in data set [5]; 2.0 (0.1) mM in data set [6]; 31.0 (12.9) mM in data set [7]. In addition, the kcat is 2.91 s⁻¹ in data set [2]; 1.69 s⁻¹ in data set [3]; 2.19 s⁻¹ in data set [4]; 0.108 s⁻¹ in data set [5]; 1.92 s⁻¹ in data set [6]; 40.5 s⁻¹ in data set [7]. Also, the kcat/Km in data set [2] turned out to be 690 M⁻¹ s⁻¹; in data set [3], 31.7 M⁻¹ s⁻¹; in data set [4], 81.7 M⁻¹ s⁻¹; in data set [5], 50 M⁻¹ s⁻¹; in data set [6], 987 M⁻¹ s⁻¹; in data set [7] it was 1300 M⁻¹ s⁻¹.

(Values after publication PMC6238066, “Versatile Fungal Polyphenol Oxidase with Chlorophenol Bioremediation Potential: Characterization and Protein Engineering” (Applied and Environmental Microbiology, 2018).)
